Two molecules from paper PMC11210195 (Frontiers in Immunology, 2024) can be followed below.

Data set [1] concerns the molecule itself. As to the kind of experiment: SEC-MALS; TRIM21-CC-PS alone, 1 mg/mL, 50 µg injected, Superdex200 Increase 10/300 GL, PBS pH 7.4.
The target in data set [2] is cytokine-Fc Fusion Y436A (human). As to the kind of experiment: SPR; cytokine-Fc Fusion constructs captured via anti-PGLALA F(ab')2 fragment at low density; TRIM21-CC-PS injected; 25°C, HBS-EP+; apparent (avidity) constants. The following applies: both partners purified.
Data set [3] has the same target. Description: SPR; cytokine-Fc Fusion constructs captured via anti-PGLALA F(ab')2 fragment (35-40 RU); PRYSPRY injected, two-fold series; 25°C, HBS-EP+ pH 7.4; 1:1 fit. Particulars: both partners purified. (In SPR one partner is held on a chip, and binding of the other changes the refractive index at the surface.)

B1: TRIM21-coiled-coil-PRYSPRY (TRIM21-CC-PS) (domain or fragment, human, UniProt P19474-1 128-475, looked up)
chain: LEEAAQEYQEKLQVALGELRRKQELAEKLEVEIAIKRADWKKTVETQKSRIHAEFVQQKNFLVEEEQRQLQELEKDEREQLRILGEKEAKLAQQSQALQELISELDRRCHSSALELLQEVIIVLERSESWNLKDLDITSPELRSVCHVPGLKKMLRTCAVHITLDPDTANPWLILSEDRRQVRLGDTQQSIPGNEERFDSYPMVLGAQHFHSGKHYWEVDVTGKEAWDLGVCRDSVRRKGHFLLSSKSGFWTIWLWNKQKYEAGTYPQTPLHLQVPPCQVGIFLDYEAGMVSFYNITDHGSLIYSFSECAFTGPLRPFFSPGFNDGGKNTAPLTLCPLNIGSQGSTDY
modifications: biotinylated where it was captured via monovalent streptavidin
notes: human TRIM21 (Ro52, RNF81), coiled-coil and PRYSPRY domains, amino acids 128 to 475 of isoform 1; also called PRYSPRY-coiled-coil variant; source: E. coli BL21 DE3, purified (Ni-NTA, Superdex S-200 gel filtration) by Proteros Biostructures; not shown: His-Avi-Tag (via a (4GS)1 linker), C-terminal, kept
One may read the stoichiometry N as a count of units in the complex or per binding partner. Consider B1, for which the “stoichiometry N” value in data set [1] is 2. In data set [2], the “avidity enhancement (K_(D,AFFINITY)/K_(D,AVIDITY))” value is 14 fold and the “fold weaker against the WT avidity” value stood at 766 fold.

B2: TRIM21 PRYSPRY domain (domain or fragment, human, UniProt P19474-1 277-475, looked up)
chain: GLKKMLRTCAVHITLDPDTANPWLILSEDRRQVRLGDTQQSIPGNEERFDSYPMVLGAQHFHSGKHYWEVDVTGKEAWDLGVCRDSVRRKGHFLLSSKSGFWTIWLWNKQKYEAGTYPQTPLHLQVPPCQVGIFLDYEAGMVSFYNITDHGSLIYSFSECAFTGPLRPFFSPGFNDGGKNTAPLTLCPLNIGSQGSTDY
modifications: biotinylated where it was captured via monovalent streptavidin
notes: human TRIM21 (Ro52, RNF81), PRYSPRY domain, amino acids 277 to 475 of isoform 1; also called PS; TRIM21 PRYSPRY variant; source: E. coli BL21 DE3, purified (Ni-NTA, Superdex S-200 gel filtration) by Proteros Biostructures; not shown: His-Avi-Tag (via a (4GS)1 linker), C-terminal, kept
With B2, in data set [3], the “fold change of off rate against WT” value turned out to be 23 fold, the “fold change of on rate against WT” value is 8 fold, the “fold decrease of affinity against mAb1 Fc WT” value worked out at 180 fold and the t1/2 of dissociation worked out at 0.3 s.
